Data published in the DeepSol protein solubility set.

Test: soluble on expression in E. coli; label from the status in PepcDB or PDB records

Sequence | soluble on expression in E. coli
MGSDKIHHHHHHMKVLFTFGGIPHYLNAMLNRLQAKGVEITVVSPKKGNTTIGKGVKMVEGGTYKHLTTPEKKMFYGKSAFPALPEIIAEEKPDIVVVGWPYFLQVFFQPALRKAMKSCNAKLVIREIPFQTPPYGKIKEYFKANPMHDEGMRLLSKGIGFYLRQWITARIRKYCYAQAAGTLNYSTAAYDILPSYGVKKEQIHVTYNSTDTEALLKEKESVLASPSILPPCDRRLLHIGRLVKWKRVDLLIEAFRKVATDYPEAELVIVGDGPELDNLRQQANDLQLADSIRFIGAVYDPKTLGAYMNESSIYVLAGMGGLSINDAMTYGMPVLCAVCDSTERDLVMEGKNGYFFKDGDADSLAGRIREMFESPERCKEMGKESERMIREKINMETVSERYLKAFQEILRLTHLRDSGN | not soluble
MLTESTDKKAVNQVIHYVYEGGGEAATDHNATVDFSRTITTDRVTNDKTYGDWTADNGDSFASVTSPVIDGYTADQLKVSEMTGITADTEDISVTVTYTRNQGTIDITYIDQTTGQTLSKLEHHHHHH | not soluble
MSLAQTNPNSKGDQQKMINIAHRGASGHAPENTMAAFQKGFDMKVDYIEFDVHMTKDGELVLMHDLTVDRTTNGHGYVSDLTLDEIKQFDAGSWFHEDFVGEKVPTFEETLDVFRGKVGLLIELKSPERYPGMEEKVAEALKERKMDRSSNHKVIIQSFNHESMKKSKELLPHIPHGVLAGPSWANVTDEQLEEFSTYADYFNPNMTIVTPELVSRIHAVGMKIFPYTSRTQEQANRLFELKVDGIITDFPEHVYFHPVKNQEGHHHHHH | not soluble
MSLTTELKTEALPTRTQVDPKHCWDTTLMYANREEWKKDFDLCSSGKDRSPIWPEFSPSHYQIDNPESLLELLSKKFSVERKLDQLYIYAHLIHDQDITNPEGESDYQSIVYLYTLFSQEISWIQPALIALSEEKVAALLSSSVLAPYRFYLEKIFRLSPHTGTANEEKILASSFAALNVSNKAFSSLSDAEIPFGIAKDSNGEEHPLSHALASLYMQSPDQELRRTAYLAQFQRYYDYRNTFANLLNGKVQAHLFEAKARNYPSCLEASLFQHNIPTTVYINLINETKKHTSLINRYFNLKKEALNLKEFHFYDVYAPISQTTSKNYSYEEGVDLVCKSLLPLGTHYVEILRNGLLSNRWVDRYENKHKRSGAYSSGCYDSAPYILLNYTNTLYDVSVIAHEAGHSMHSYFSREAQPYHDAQYPLFLAEIASTFNEMLLMEALSKSDQSKEDKIVIITKTLDTIFATLFRQTFFAAFEYEIHSAAEQGTPLTEEFLSATYGNLQKEFYGGVVTSDSLSALEWARIPHFYYNFYVYQYATGIIAALSFAEKILTQEPGALELYLKFLKSGRSDFPLNILKKSGLDMTTSAPLDKAFAFITKKIDLLSSLLSEDEGHHHHHH | soluble
MGSDKIHHHHHHMRKDGHMQLQTIKVQGFKSIRELEFSLRPLNILIGANGSGKSNILGVFAFLRAMVERHLQMYVARAGGADRILHFGQKNTDSLQIELWFTKKNRRARGNIIANGYRCALVPAVGDRFVFAEERAFFHDRRYEKPVETLLGSGHEESLLPASYGRGIPADVFEAMQSWIVYHFHDTSDSARVKQTGDIDDNYWLRQDASNLTAYLYYIQQQAPDHYRNIVDVIRMVAPFFDDFVLRPSPFNPNKIKLEWRERGSDTYFDAYALSDGTLRFICLATLLLQPARKFPAIILLDEPEMGLHPYAIHVLAELLHSAATQTQVIVATQSVTLVNQFEPEDIVVVERQDGQPVCRRLTMEETETWLDGYGLGDLWEKNILGGRPLP | not soluble
MSEAVKLDVGGTIFKTSKSTLTKFDGFFRTMLGSGIGLNVDESGCIFIDRSPKHFDLILNFMRDGCLALPKNERDLTELMAEAQYYLLDGLIDRLASSNWSVESDEKTINVAKRLPILENNSQFLQVLCNQEKPILLIVVMASRDHFFPNMSIPDGFNAYKFVEKYSHQFHIYFMSTFVAQFLTIRVKRNNKIVYLKRAAYVSSGQQE | not soluble
MAHHHHHHMDAERGCRQCGQQGHSASQCRIKKYLCRDCGGMHDTRDCIFSHVGEDWYEFYDPKTRHVYYANSDESQIQWNPPTHELDTIYWYCSRCQVMISAKFRECLLCHSIRPESKQQETLTTDSNSDSSSSSSTSSSSSSTDTSCISRSSSSSGSASSSDSSSNDDDKRSAAGRLRDRAP | soluble
MLWRKRLFAHLYPGLSARHEALVAERKRALFREALRRARPERVLEIGPGPGTNLAHLPEGVAYLALEPNPFFHPRLREEARKRGLALTLLPGRAEAIPLPGGSVDLVVATLVLCSVADPEKAIEEVHRVLRPGGAYLFLEHVAAPKRTPLRFLQEVATPFFAFFGDGCHPNRETLALIQARFPRVEAEAFPLPLPVVAPHVAGLAFKEGGSGGSLQGPWA | soluble
MGHHHHHHSHMSETTQTSQSLYQALWNSADVLRSKMDANDYKSYLLGMVFYKYLSDKMLFFVAETMEEETESLDEALAVYRKYYEDEETHEDLLAVITDEMSYAIHPDLTFTALVERVNDGSFQLEDLAQGFRDIEQSDELYENLFEDIDLYSKKLGATPQKQNQTVAAVMKELAVLDVAGHAGDMLGDAYEYLIGQFATDSGKKAGEFYTPQPVAKLMTQIAFLGREDKQGFTLYDATMGSGSLLLNAKRYSRQPQTVVYFGQELNTSTYNLARMNMILHGVPIENQFLHNADTLDEDWPTQEPTNFDGVLMNPPYSAKWSASSGFMDDPRFSPFGKLAPKSKADFAFLLHGYYHLKQDNGVMAIVLPHGVLFRGNAEGTIRKALLEEGAIDTVIGLPANIFFNTSIPTTVIILKKNRTNRDVYFIDASKEFDKGKNQNIMTDAHIEKILNAYKSREDIDKFAHLASFEEIVENDYNLNIPRYVDTFEEEEVEPLTEIVAKINQTNATIESQTASLLDMLGQLHGTTPEADEELKAFVKAFKG | not soluble
MRTEGRLVRANLPLNLPSPTMRYMTPQRFGMGGTQIGNIFAPISDEQADLVLQAAWNAGVRLYDTSPFYGFGLSEYRLGRFLRGKDPADYVISTKVGRVLTAAGGARQDHAIWKSPAPFNYRYDYTAAGARRSVEDSLQRLGLPRIDIVFIHDLSPDNTELEGGWEAAYRIARTGAMVELEKMRDEGLIKAWGFGVNTPNAVVQAMGSDDPTPDIVLLACQYSLIDHSEALRNTFPALHRKGTSVVVGTPLNDGFLGGRNRYNFSLELPAGAVEKRKRIMAVAARHGIDIHTAALQFAAAHPQVSAIIPGARSPGQVMSNVQAMKVGIPAAFWAELKSQSLMDAQAPVPS | not soluble
MNNLIRLRDGVAEVCRDDPWQLLRELPDALPPGPLLLPLAAWLERRGEAGAAAPWLAPDDEVEALLPHFAELPLIAVDFPSFRDGRGYSLAYLLRVRLGWSGELRAVGDVLRDQLSHMRQCGFDAFAVREDKNVEDALKGLAGLSVLYGRSAIEPRPLFRRR | not soluble
MGSDKIHHHHHHMNMEINPSEYKILIVDDVMSNVLLLKVLLTNEKFNIVTASNGNQALDQVKKENPDLILLDVMMPDMSGFEVSQKLKADPEAAHIPIIFLTALNSTADIVKGFQVGGNDFISKPFNKEELIIRVSHQISLVAAKRIIEAKTEELKKTIIGRDKLYSVIAHDLRSPMGSIKMVLNMLILSLPKEKIGEDMYELLTMANQTTEDVFSLLDNLLKWTKSQIGKLKVVYQDIDMVEVVEGVGEIFAMVAGLKNIRLRIESPECQAVHADIDMIKTVIRNLISNAIKFSNEGSEVLIKVEESDGMSVVSVKDSGCGIDEESQKKLLHTDTHFSTFGTNNEEGSGLGLLLCQDFVVKNGGKLWFTSVKDEGSTFYFSIPLKK | not soluble
MGSDKIHHHHHHMNKEVDLSVSCLGKVKELKYDVIILPWGATEPHNLHLPYLTDCILPHDIAVEAAELALSRSGVRCMVMPPVPFGAHNPGQRELPFCIHTRYATQQAILEDIVSSLHVQGFRKLLILSGHGGNNFKGMIRDLAFEYPDFLIAAANWFEVVSPKGYFEAEIDDHAGESETSVMMHYHPELVNLAEAGDGESKPFAIASLNEKVAWVPRHWDKATVDSGVGNPKKATAEKGERYVKPIVEKLAGLFEEMAQHDLYE | not soluble
MIQDKEVTLEYVSSLDFWYCKRCKANIGGHRSSCSFCKNPREVTEAKQELITYPQPQKTSIPAPLEKQPNQPLRPADKEPEPRKREEGQESRLGHQKREAERYLPPSRREGPTFRRDRERESWSGETRQDGESKTIMLKRIYRSTPPEVIVEVLEPYVRLTTANVRIIKNRTGPMGHTYGFIDLDSHAEALRVVKILQNLDPPFSIDGKMVAVNLATGKRRNDSGDHSDHMHYYQGKKYFRDRRGGGRNSDWSSDTNRQGQQSSSDCYIYDSATGYYYDPLAGTYYDPNTQQEVYVPQDPGLPEEEEIKEKKPTSQGKSSSKKEMSKRDGKEKKDRGVTRFQENASEGKAPAEDVFKKPLPPTVKKEESPPPPKVVNPLIGLLGEYGGDSDYEEEEEEEQTPPPQPRTAQPQKREEQTKKENEEDKLTDWNKLACLLCRRQFPNKEVLIKHQQLSDLHKQNLEIHRKIKQSEQELAYLERREREGKFKGRGNDRREKLQSFDSPERKRIKYSRETDSDRKLVDKEDIDTSSKGGCVQQATGWRKGTGLGYGHPGLASSEEAEGRMRGPSVGASGRTSKRQSNETYRDAVRRVMFARYKELD | not soluble
MSLNWMELSIVVNHEVEYDVTEILESYGSNGVVIEDSNILEEQPVDKFGEIYDLNPEDYPEKGVRLKAYFNEFTYNENLKSNINYEILSLQQIDKTIYDYQEKLIAEVDWENEWKNYFHPFRASKQFTIVPSWESYVKENDNELCIELDPGMAFGTGDHPTTSMCLKAIETFVKPTDSVIDVGTGSGILSIASHLLGVQRIKALDIDEMAVNVAKENFKKNHCDDAIEAVPGNLLKNENEKFNIVIANILAHIIEEMIEDTYNTLIEDGYFITSGIIEEKYQDIESQMKRIGFKIISVEHDNGWVCIVGQKVSEGHHHHHH | soluble
MVITDTAAWVQSQSRSIVDFISAPNSNSSLPPYVQIGAAAAVTMGLGYYLSKSSSSTSGSYSFSGVTYSGNVKPLVDPMNQSRILPDGSRISAYLKDDELQAFLFEDARTLYQGVRRGARLSNNGPMLGRRVKQSDGSIPYVWESYNTILERADNVSVAFRELGVPTGNAENIGIYSKNRAEWIITEFATYNYSNVIVPIYETLGSEASIFILNQAEIKIVVCDDISKATGLLKFKEQCPSLSTLVVMEPVTDELKTTASSLGVEVLTFEDLEKIGKNAKTRPAHIPPTPEDLATICYTSGTTGTPKGVMLTHANVIADGVCMDFFKHSGIAATDSMISFLPLAHMLERVIESVCFCVGAKVGFYRGDIRVLAEDIKELKPTVVPVVPRVLNRLYDKVMSEVNKSTLKKMLFDFAISYKARDMANFNIRNDGFFDNLVFKKIREGFGGRVRLMITGSAPLSTNVLTFVRAAMGCVVVEGYGQTECVAACTVSMEGDSLAGHVGMVIPSCQIKLVDVPELNYYAKDQAGEVCVKGHIIFKGYYKNEQQTKETIDEDGWLHTGDIGRWTPEGTLKIVDRKKHIFKLSQGEYVAPEKIENIYVRSKYVAQSFVHGESLKTCLIAIVVPDAEVLVPAMADQGIKGTFEELCNNDAVKKAILDDMVAVGKKAGLFSFEQVRDISLSAEQFSVENDLLTPTLKSKRPKLKAHYSKQLDAMYSKLP | not soluble
TSLKQNQLNLSTLLVNPEGPTLTQLNSVQSSERPLFLVHPIEGSTTVFHSLAAKLSVPTYGLQCTQAAPLDSIPNLAAYYIDCIKQVQPEGPYRIAGYSFGACVAFEMCSQLQAQQGPAPTHNNLFLFDGSHTYVLAYTQSYRAKMTPGCEAEAEAEALCFFIKQFLDVEHSKVLEALLPLKSLEDRVAASVDLITKSHHSLDRRELSFAAVSFYHKLRAADQYKPKAKYHGNVTLLRAKTGGTYGEDLGADYNLSQVCDGKVSVHIIEGDHRTLLEGSGLESIINIIHSS | soluble
